The record followed here is article PMC9805127.

Substrate in the data set: O=C(O)C(=O)O
In words: purified protein. The settings on record: pH 4.0 (authors' preferred pH; also measured at pH 3 and 5), 100 mM buffer, air-saturated, 25 °C, 0.025 μM HvOXO, 0.125 μM PaDa-I as coupling enzyme.

B1: HvOXO (Hordeum vulgare) (protein)
chain: SDPDPLQDFCVADLDGKAVSVNGHTCKPMSEAGDDFLFSSKLTKAGNTSTPNGSAVTELDVAEWPGTNTLGVSMNRVDFAPGGTNPPHIHPRATEIGMVMKGELLVGILGSLDSGNKLYSRVVRAGETFVIPRGLMHFQFNVGKTEAYMVVSFNSQNPGIVFVPLTLFGSDPPIPTPVLTKALRVEAGVVELLKSKFAGGS
Turning to B1, the Km turned out to be 730 ± 90 µM, the kcat was 1.52 s⁻¹ and the kcat/Km was 2080 M⁻¹ s⁻¹.
